Laboratory results from patent US20190256588A1 (BEIJING HANMI PHARM, published 2019).

What was measured:
Experiment in all cases: ELISA, cytokine coated on plate at 1 µg/mL
recombinant human IL-23 = molecular target: T1, recombinant human IL-23 (human, UniProt Q9NPF7 20-189; P29460 23-328)
T1 sequence (looked up) 1: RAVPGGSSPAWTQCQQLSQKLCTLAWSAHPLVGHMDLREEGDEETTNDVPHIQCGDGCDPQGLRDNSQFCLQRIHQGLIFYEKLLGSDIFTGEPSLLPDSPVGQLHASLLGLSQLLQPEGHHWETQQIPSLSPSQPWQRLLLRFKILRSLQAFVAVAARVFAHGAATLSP
T1 sequence (looked up) 2: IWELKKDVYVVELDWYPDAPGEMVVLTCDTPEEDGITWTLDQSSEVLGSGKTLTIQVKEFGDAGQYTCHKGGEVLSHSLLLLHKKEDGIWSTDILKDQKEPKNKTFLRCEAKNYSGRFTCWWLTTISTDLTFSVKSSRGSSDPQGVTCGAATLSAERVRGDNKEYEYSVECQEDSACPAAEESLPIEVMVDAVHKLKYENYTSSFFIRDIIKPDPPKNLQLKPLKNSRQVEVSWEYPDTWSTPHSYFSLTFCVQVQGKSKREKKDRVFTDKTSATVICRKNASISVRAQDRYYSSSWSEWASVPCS
Method: (§1) Recombinant human IL-17A, IL-17B, IL-17C, IL-17D, IL-17E, IL-17F, IL-1, IL-2, IL-6, IL-8, IL-21, IL-22, IL-23, IFN-g and TNFα (purchased from Sino Biological Inc. or R&D systems) were coated on a 96-well high-absorbing ELISA plate with a carbonate buffer solution with pH 9.6, the coating concentration was 1 μg/mL, the coating amount was 100 μL per well, and the coating was carried ax 4° C. out overnight. The plate was washed five times with PBST and blocked with 300 μL/well of PBST containing 1% BSA and incubated at 25° C. for 1 hour. The plate was washed five times with PBST. […] The plate was washed five times with PBST. Then, horseradish peroxidase-labeled anti-human IgG antibody (Chemicon, Catalog Number AP309P) 1:2000 diluted in PBST containing 1% BSA was added, 100 μL was added to each well, incubated at 25° C. for 1 hour. The plate was washed five times with PBST. 100 μL/well of colorimetric substrate TMB was added and incubated at room temperature for 10 minutes. Color development was terminated by adding 100 μL/well of 1 M H₂SO₄. The absorbance at 450 nm was read on a microplate reader.
(§2) Recombinant human IL-17A, IL-17B, IL-17C, IL-17D, IL-17E, IL-17F, IL-1, IL-2, IL-6, IL-8, IL-21, IL-22, IL-23, IFN-g and TNFα (purchased from Sino Biological Inc. or R&D systems) were coated on a 96-well high-absorbing ELISA plate with a carbonate buffer solution with pH 9.6, the coating concentration was 1 μg/mL, the coating amount was 100 μL per well, and the coating was carried at 4° C. out overnight. Washed five times with PBST. Blocked with 300 μL/well of PBST containing 1% BSA and incubated at 25° C. for 1 hour. Washed five times with PBST.

recombinant human IL-17F = molecular target: T2, recombinant human IL-17F (human, UniProt Q96PD4 31-163)
T2 sequence (looked up): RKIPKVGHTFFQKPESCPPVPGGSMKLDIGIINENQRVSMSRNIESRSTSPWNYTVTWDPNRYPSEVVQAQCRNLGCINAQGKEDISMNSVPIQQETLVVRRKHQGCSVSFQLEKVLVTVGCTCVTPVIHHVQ
Method: as §1, §2

recombinant human IL-8 = recombinant human IL-8 (human, UniProt P10145 28-99, limits assumed)
Chain of recombinant human IL-8 (P10145 28-99 limits assumed): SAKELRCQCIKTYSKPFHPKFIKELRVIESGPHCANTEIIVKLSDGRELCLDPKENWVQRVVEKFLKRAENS
Method: as §1, §2

recombinant human IL-2 = recombinant human IL-2 (human, UniProt P60568 21-153)
Chain of recombinant human IL-2 (P60568 21-153 limits assumed): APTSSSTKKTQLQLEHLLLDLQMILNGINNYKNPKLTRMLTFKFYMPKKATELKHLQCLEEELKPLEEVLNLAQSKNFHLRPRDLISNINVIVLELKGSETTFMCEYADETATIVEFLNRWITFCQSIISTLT
Method: as §1, §2

recombinant human IL-21 = recombinant human IL-21 (human, UniProt Q9HBE4 32-162, limits assumed)
Chain of recombinant human IL-21 (Q9HBE4 32-162 limits assumed): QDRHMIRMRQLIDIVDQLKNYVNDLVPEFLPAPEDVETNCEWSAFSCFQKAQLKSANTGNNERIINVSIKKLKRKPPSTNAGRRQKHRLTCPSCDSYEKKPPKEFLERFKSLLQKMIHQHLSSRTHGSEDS
Method: as §1, §2

recombinant human IL-17C = molecular target: T3, recombinant human IL-17C (human, UniProt Q9P0M4 19-197)
T3 sequence (looked up): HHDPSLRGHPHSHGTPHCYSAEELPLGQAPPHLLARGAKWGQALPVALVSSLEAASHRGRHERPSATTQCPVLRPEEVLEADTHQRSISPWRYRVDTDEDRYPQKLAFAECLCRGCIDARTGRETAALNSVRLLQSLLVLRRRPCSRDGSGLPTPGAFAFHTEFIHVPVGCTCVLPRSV
Method: as §1, §2

recombinant human TNFα = recombinant human TNFα (human, UniProt P01375 77-233)
Chain of recombinant human TNFα (P01375 77-233 limits assumed): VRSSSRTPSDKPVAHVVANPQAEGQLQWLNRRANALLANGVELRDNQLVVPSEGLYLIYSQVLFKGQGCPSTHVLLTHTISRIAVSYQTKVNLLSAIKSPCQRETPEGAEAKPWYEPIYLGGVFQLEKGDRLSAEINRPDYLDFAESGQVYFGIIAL
Method: as §1, §2

recombinant human IL-22 = molecular target: T4, recombinant human IL-22 (human, UniProt Q9GZX6 34-179)
T4 sequence (looked up): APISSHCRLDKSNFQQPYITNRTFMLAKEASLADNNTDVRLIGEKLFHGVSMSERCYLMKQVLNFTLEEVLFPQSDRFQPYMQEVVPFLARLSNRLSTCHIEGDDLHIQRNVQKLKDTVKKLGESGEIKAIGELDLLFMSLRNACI
Method: as §1, §2

recombinant human IL-17E = molecular target: T5, recombinant human IL-17E (human, UniProt Q9H293 33-177)
T5 sequence (looked up): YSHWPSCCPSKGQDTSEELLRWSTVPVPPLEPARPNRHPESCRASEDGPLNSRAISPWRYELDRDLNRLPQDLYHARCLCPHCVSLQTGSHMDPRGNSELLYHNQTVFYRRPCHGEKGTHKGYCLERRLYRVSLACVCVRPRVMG
Method: as §1, §2

recombinant human IL-6 = recombinant human IL-6 (human, UniProt P05231 30-212)
Chain of recombinant human IL-6 (P05231 30-212 limits assumed): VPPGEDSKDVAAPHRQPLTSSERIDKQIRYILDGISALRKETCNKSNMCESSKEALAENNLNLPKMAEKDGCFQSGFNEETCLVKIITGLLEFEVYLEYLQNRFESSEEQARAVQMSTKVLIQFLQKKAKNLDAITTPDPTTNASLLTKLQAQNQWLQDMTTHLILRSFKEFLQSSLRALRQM
Method: as §1, §2

Measured: binding result

B1: anti-human IL-17A chimeric monoclonal antibody (antibody, human IgG1, kappa, V domains shown)
VH: DVQVQESGPGLVKPSQSLSLTCTVTGNSITSYYAWNWIRQFPGNKLEWMGYITYSGTTSYNPSLKSRISITRDTSKNQFFLQLNSVTTEDTATYYCAREEYDDIYAVDYWGQGTSVTVSS
VL: IIVMTQTPLSLPVSLGDQASISCRSSQSLVHSNGNTYLHWYLQKPGQSPKLLIYKVYNRFSGVPDRFSGSGSGTDFTLKISRVEAEDLGVYFCSQSTHFPTFGGGTKLEIKR
notes: expressed in 293F cells; also called Anti-human IL-17A Chimeric Antibody; chimeric anti-human IL-17A monoclonal antibody
no binding: recombinant human IL-23 | recombinant human IL-17F | recombinant human IL-8 | recombinant human IL-2 | recombinant human IL-21 | recombinant human IL-17C | recombinant human TNFα | recombinant human IL-22 | recombinant human IL-17E | recombinant human IL-6
